Results reported in publication doi:10.1101/2022.05.07.491051 (bioRxiv, 2022).
Where two headings read alike, the source gives them in different places.

B1: SeThsA (Streptococcus equi ThsA) (enzyme)
chain: MFIIKGEVSRKDLIREIEKAIKSDELGAFIGAGLSIPAGFCSWKELLREPAEEIGLDVEKESDLVNLAQYYSNSKKRTSIDDLIKGQFSQLVKPTENHKLLSQLPISTFWTTNYDKLIEKALENNMKKPYVKTKDEQLRGTNHNFDAIVYKLHGDVETPEDAVITRSDYEEFGYNKRKLFREVLEGDLLTKTFLFLGFSFEDPNFNYVIGRLRVLLDEKNTRKHYCIMKRVQDADEDYEYKKARQELQIEDLNRYGIFTYLVNKYDEITEILSTLVDRFRRKTIFISGSAYSYSAYSQKTGENFIHKLSFELSKNGYHIVNGYGKGVGEFVLNGVADYCLTHKSKINDFLTLMPFPQNSSLGIDLDKLYKENREQMIESCGIAIFLFGNKEAEDIASGVMDEYELSKKHGLVCLPIEYTGGASKEIYDQTTQEISDKNTISAIEQANKQCDGDIDMSVKNIVQAVKILNKEEF
B2: BcThsA, full-length (Bacillus cereus MSX-D12 Thoeris ThsA) (enzyme, Bacilus cereus MSX-D12, UniProt J8G6Z1 1-476, looked up)
chain: MKMNPIVELFIKDFTKEVMEENAAIFAGAGLSMSVGYVSWAKLLEPIAQEIGLDVNKENDLVSLAQYYCNENQGNRGRINQIILDEFSRKVDLTENHKILARLPIHTYWTTNYDRLIEKALEEENKIADVKYTVKQLATTKVKRDAVVYKMHGDVEHPSEAVLIKDDYEKYSIKMDPYIKALSGDLVSKTFLFVGFSFTDPNLDYILSRVRSAYERDQRRHYCLIKKEERRPDELEADFEYRVRKQELFISDLSRFNIKTIVLNNYNEITEILQRIENNIKTKTVFLSGSAVEYNHWETEHAEQFIHQLSKELIRKDFNIVSGFGLGVGSFVINGVLEELYMNQGTIDDDRLILRPFPQGKKGEEQWDKYRRDMITRTGVSIFLYGNKIDKGQVVKAKGVQSEFNISFEQNNYVVPVGATGYIAKDLWNKVNEEFETYYPGADARMKKLFGELNNEALSIEELINTIIEFVEILSN
B3: AbTir^CC (amino acid 27-118) (domain or fragment, Acinetobacter, UniProt A0A009IHW8 27-118, looked up)
chain: SPSTLKTKLSEISRKEQENARIQSKLSDLQKKKIDIDNKLLKEKQNLIKEEILERKKLEVLTKKQQKDEIEHQKKLKREIDAIKASTQYITD
B4: AbTir^full-length (amino acid 1-269) (natural protein, Acinetobacter, UniProt A0A009IHW8 1-269, looked up)
chain: MSLEQKKGADIISKILQIQNSIGKTTSPSTLKTKLSEISRKEQENARIQSKLSDLQKKKIDIDNKLLKEKQNLIKEEILERKKLEVLTKKQQKDEIEHQKKLKREIDAIKASTQYITDVSISSYNNTIPETEPEYDLFISHASEDKEDFVRPLAETLQQLGVNVWYDEFTLKVGDSLRQKIDSGLRNSKYGTVVLSTDFIKKDWTNYELDGLVAREMNGHKMILPIWHKITKNDVLDYSPNLADKVALNTSVNSIEEIAHQLADVILNR
B5: BtTir^TIR (residues 156-287) (domain or fragment, Bacteroides thetaiotaomicron, UniProt A0A0P0FGV9 156-287, looked up)
chain: QYDFFISHASEDKDDIVRDLAEALRNNGFEVWYDEFELKIGDSLRKKIDYGLSNANYGIVIISPSFVKKNWTEYELNGMVAREMNGHKVILPIWHKITKDEVLRFSPSLADKLALNTSIHTIDDIVENLKNL
B6: EfThsA (Enterococcus faecium ThsA) (enzyme, UniProt P0DW60 1-478, looked up)
chain: MDKKVLIKRFSEAIEKGNAAIFAGAGLSMSQGYVSWPELLNDPATEIGLDSKKETDLVTLAQYYKNENGGSRGILNQILMDNFGEELEISENHRILASLPIETYWTTNYDHLIEKSIREAYKNPQVKKNYTQLATTNPNVDTIVYKMHGDIDDVSSTVITRDDYEKYDDDSYALFKETLKGDLLTKTFLFLGFSFTDPNLERILSDIRWVLRENQRPHYCIMRKILKENFVDSEDFFDQERYNYELTKRRLQINDLSRFSINVVEVDDYSEITDILKSIRKKYLRKTIFISGSAVDYTPFTSESKGLKFVEKLAYRLSESGYRIVSGYGLGIGNSIVSGVLKQRRNLRKNNIQDVLSLRPLPLDMPHEWRRYRENIIAESGISIFVFGNKLESGEIVTADGMIEEFELSVQNENIVVPIGFTKGASKVLFDKIQENFSDYFDDSLKSKFQALEKLDTEGEVDKKVEQIVSLINSIQED
B7: AbThsA (Acinetobacter baumannii ThsA) (enzyme, UniProt P0DW59 1-482, looked up)
chain: MFEHEQKIMIDRIVKELEENNFAIFAGAGLSAPAGYVNWKELLRPLSIELNLDIDKETDLVSLAQYYVNENHGRNRLTERLIDEVGVAREPTPNHKILAKLPISTYWTTNYDDLIEKALDNEGKIADKKFTKNHLSQTKKGRSAVVYKMHGDASLPDQAIITKDQYESYPLHFAPFVTALSGDLVSKTFLFLGFSFNDPNLDYILSRIRIHFEQNQRQHYCIFRKVNRADYSNDEDFSYNLLKQQFVIKDLARFSIKVVLIDAWNDLTRILEEITKRFRCKNVFLSGSAHEFGSWGQTATELFLSKLGEVLIQEGFKITSGLGLGIGNAFISGAIKEIYNRKYTKIDDYLTMKVFPQFVADPTERKNIWTAWRKDLLSQTGIALFFMGNKIIKDPESGKQTIVLADGMDEEFHIAHELGLKLIPIGASGYKAKELFNQIISDFDHYYPNSSPKFREAFEKLNEEVDEPVKLLSKIHDVIKLI
B8: SeThsA^SIR2 (residues 1-283) (domain or fragment, Streptococcus equi, UniProt C0MAL8 1-283, looked up)
chain: MFIIKGEVSRKDLIREIEKAIKSDELGAFIGAGLSIPAGFCSWKELLREPAEEIGLDVEKESDLVNLAQYYSNSKKRTSIDDLIKGQFSQLVKPTENHKLLSQLPISTFWTTNYDKLIEKALENNMKKPYVKTKDEQLRGTNHNFDAIVYKLHGDVETPEDAVITRSDYEEFGYNKRKLFREVLEGDLLTKTFLFLGFSFEDPNFNYVIGRLRVLLDEKNTRKHYCIMKRVQDADEDYEYKKARQELQIEDLNRYGIFTYLVNKYDEITEILSTLVDRFRRKT
B9: AbTir^TIR (amino acid 134-267) (domain or fragment, Acinetobacter, UniProt A0A009IHW8 134-267, looked up)
chain: EYDLFISHASEDKEDFVRPLAETLQQLGVNVWYDEFTLKVGDSLRQKIDSGLRNSKYGTVVLSTDFIKKDWTNYELDGLVAREMNGHKMILPIWHKITKNDVLDYSPNLADKVALNTSVNSIEEIAHQLADVIL
B10: BcThsA^SLOG (284-476) (domain or fragment, Bacilus cereus MSX-D12, UniProt J8G6Z1 284-476, looked up)
chain: TVFLSGSAVEYNHWETEHAEQFIHQLSKELIRKDFNIVSGFGLGVGSFVINGVLEELYMNQGTIDDDRLILRPFPQGKKGEEQWDKYRRDMITRTGVSIFLYGNKIDKGQVVKAKGVQSEFNISFEQNNYVVPVGATGYIAKDLWNKVNEEFETYYPGADARMKKLFGELNNEALSIEELINTIIEFVEILSN

Key:
SEC-MALS [1] = biological target: the molecule itself; assay: SEC-MALS
SEC-MALS [2] = biological target: the molecule itself; assay: SEC-MALS; remark: listed apart in the source
crystal structure = biological target: the molecule itself; assay: crystal structure

Protein | stoichiometry N (SEC-MALS [1]) | further results
B1 | 4 | 
B2 | 4 | 
B3 |  | binding result (SEC-MALS [2]): binds
B4 |  | stoichiometry N (SEC-MALS [2]): 2
B5 |  | binding result (crystal structure): binds
B6 | 4 | 
B7 | 4 | 
B8 | 2 | 
B9 |  | binding result (SEC-MALS [2]): binds
B10 | 2 | 
